Data reported in PMC5551578 (The Journal of Experimental Medicine, 2017).
Where two headings read alike, the source gives them in different places.

What was measured:
[1] = target: T1, H2N2 HA (A/Japan/305/1957) (Influenza A virus A/Japan/305/1957 …, UniProt P03451, strain); assay: ELISA; details: one partner purified
T1 construct: source: bought: Sino Biological

[2] = target: T2, H3N2 HA (A/Perth/16/2009) (Influenza A virus A/Perth/16/2009 (H3N2), UniProt C6KNH7, strain); assay: ELISA; details: one partner purified
T2 construct: also called H3N2 hemagglutinin; source: bought: Sino Biological

[3] = target: T3, H5N1 HA (A/Vietnam/1194/2004) (Influenza A virus A/Vietnam/1194/2004 …, UniProt A5A5M5, strain); assay: ELISA; details: one partner purified
T3 construct: also called H5N1 hemagglutinin; source: bought: Sino Biological

[4] = target: T4, H1N1 HA (A/California/04/2009) (Influenza A virus A/California/04/2009 …, UniProt C3W5S1, strain); assay: ELISA
T4 construct: source: bought: Sino Biological

[5] = target: T3, H5N1 HA (A/Vietnam/1194/2004)

B1: H5-Ab6 (antibody, V domains shown)
VH: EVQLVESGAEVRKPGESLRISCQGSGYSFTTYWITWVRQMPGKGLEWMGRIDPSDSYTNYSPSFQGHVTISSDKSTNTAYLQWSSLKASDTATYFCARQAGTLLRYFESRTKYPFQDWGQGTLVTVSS
VL: EIVLTQSPGTLSLSPGERATLSCRASQSVSGGYLAWYQQRPGQAPRLLISGASTRATGIPDRFSGSGSGTDFTLTISGLEPEDFAVYYCQQYGDSPAYTFGQGTKVEIK
binding result [1]: binds
binding result [2]: binds
binding result [3]: binds
binding result ([4]; one partner purified): binds

B2: H5-Ab4 (antibody, V domains shown)
VH: EVQLVESGGGAVQPGRSLRLSCAVSGFTFSSYGMNWVRQAPGKGLEWVAVISYDGSNTYYADSVKGRFTISRDDSKNTLFLQMNSLRADDTAVYYCAKDFQLRLLRYFDWLSSPFDHWGQGTLVTVSS
VL: DIQLTQSPGTLSLSPGERATLSCRASQSIRSNFLAWYQQTPGQGPRLLIYGASSRATGIPDRFSGSGSGTDFTLTISGLEPEDFAVYYCQQYASSPQTFGQGTKVEIK
binding result [4]: binds

B3: H5-Ab3 (antibody, V domains shown)
VH: EVQLVESGGGLVKPGGSLRLSCAASGFTFSTYSMNWVRHAPGKGLEWVSSISSGSNYIYYADSVKGRFTISRDNAKNSLYLQMNNLRAEDTAVYHCARDRGESSYYWFDPWGQGTLVTVSS
VL: QSALTQPASVSGSPGQSITISCTGTSSDVGAYDYVSWYRQHPGEAPKLLIYDVARRPSGVSFRFSGSKSGNAASLTISGLQAEDEADYFCSSYAGTTIWVFGGGTKLTVL
binding result [5]: binds

B4: H5-Ab2 (antibody, V domains shown)
VH: EVQLVQSGAEVKKPGSSVKVSCRSSGGPFRSNAISWVRQAPGQGLEWMGGIIAVFGTVEYAQKFQGRVTITADDSRSTVYMELRSLRSDDTAFYYCASAHGYHNYGSRGYFVSWGQGTLVTVSS
VL: DIVMTQSPGTLSLSPGERATLSCRASQSVSSNYLAWYQQKLGQPPRLLIYGASSRATGIPDRFSGSGSGTDFTLTISRLEPEDYAVYYCQQYGSSPHTFGQGTKVEIK
binding result [4]: binds
